Reference: US20230348578A1, “CONFORMATION-SPECIFIC ANTIBODIES THAT BIND TAU PROTEIN AND USES THEREOF” (Beth Israel Deaconess Medical Center, Inc., priority 2020, published 2023)

Experiments:
[1] = test system: mice (C57/BL6) after 3-hit repetitive TBI; test: 3-hit repetitive mild TBI in mice, elevated plus maze; assay type: in vivo; conditions: risk-taking behavior, HT13 chimera control = 1.0
Protocol: (§1) The binding affinity of selected humanized antibody clones was determined by Biacore assay using a wild-type P-tau peptide and its pure cis or cis-locked, and pure trans counterparts. The […] of the selected humanized cis mAb variants was determined by assessing their ability to eliminate cis P-tau in stressed neurons in cell cultures. Functional restoration of selected clones was determined by their ability to restore risk-taking behavior after 3-hit or 7-hit repetitive TBI in mice, as assayed by elevated plus maze.
(§2) An initial sign of brain dysfunction following traumatic brain injury (TBI) is an increase in risk-taking behavior. To determine the therapeutic effect of the herein described cis pT231-tau monoclonal antibodies in restoring brain function 11-week old mice (C57/BL6) mice were subjected to elevated plus maze behavioral assays designed to evaluate risk-taking behavior following repetitive mild TBIs. The behavioral assays were performed as previously described in Walf, Nature Protocols 2(2): 322-328, 2007 (FIG. 7). […] All other mice sustained mild TBI (rmTB) either three times, once a day for three consecutive days, or seven times once a day for five consecutive days and two consecutive times on days 8 and 9. In the 3-hit TBI experiment (FIG. 8A), nine groups of mice received three doses (250 ug/mouse) via intraperitoneal injection of either IgG control (n=10 mice) or one of the following humanized cis pT231-tau monoclonal antibody variants C113 (n=5 mice), HT1 (n=10 mice), HT2 (n=10), HT3 (n=10), HT8 (n=5), HT10 (n=10), HT13 (n=15), HT18 (n=4). Treatment with IgG or humanized cis-pT231-tau monoclonal antibody was administered on Days 1, 2 and 7. Behavioral evaluation was performed on Day 13. In the 7-hit TBI experiment (FIG. 8B), one group sustained TBI only (n=10 mice). The other groups received 8 doses (250 ug/mouse) via intraperitoneal injection of either IgG control (n=10 mice) or one of the following humanized cis pT231-tau monoclonal antibody variants C113 (n=10 mice), HT2 (n=10), HT3 (n=10), HT8 (n=10), HT10 (n=10), HT13 (n=10), HT18/HC2 (n=10). Treatment with IgG or humanized cis-pT231-tau monoclonal antibody was administered on Days 1, 2, 3, 5, 8, 10, 13 and 20. Behavioral evaluation was performed on Day 27. The elevated plus maze was used to assess anxiety/risk-taking behavior and carried out as described in Kondo et al, Nature 523, 431-436, 2015. Briefly, the elevated plus maze consists of two white open arms (30×5 cm) and two white closed arms of the same size with 15-cm-high walls, extended out opposite from each other from a central platform (decision zone) to create a plus shape. The entire apparatus is raised 38 cm above the floor (Lafayette Instruments). Mice are placed on the center platform of the maze, facing a closed arm, and allowed to explore the apparatus for 5 min. The maze is cleaned between subjects with a weak ethanol solution and dried. A computer-assisted video tracking system (Noldus Ethovision) recorded the total time spent in the center platform (decision zone), and the two closed or ‘safe’ arms and the two open or ‘aversive’ arms. Mice with lower levels of anxiety/risk-taking behavior spend less time in the open arms.

[2] = biological target: T1, cis P-tau (Homo sapiens, UniProt P10636); test: Elimination of cis P-tau in cultured neurons stressed by hypoxia; assay type: cell-based; parameters: endogenous in cells; conditions: 2.5 μg/ml, 5 μg/ml and 10 μg/ml
Protocol: as §1
Cultured neurons were subjected to neuron stress by hypoxia in the presence or absence of different concentration of humanized antibody variants, followed by immunoblotting analysis to analyze cis P-tau levels in the stressed neurons, the results of which are provided in FIGS. 2-4. FIG. 2 is an immunostaining image showing the ability of humanized cis pT231-tau monoclonal antibody variants to eliminate cis P-tau in neurons under hypoxic conditions. Cis P-tau levels are reported in red and blue reports nuclear staining (Hoechst) to represent all neurons in the experiment. […] Cis P-tau levels are reported in red and blue reports nuclear staining (Hoechst) to represent all neurons in the experiment. […] IgG is a negative control. The cis-pTau monoclonal antibody C113 serves as a positive control.

[3] = biological target: T1, cis P-tau; test: Immunoblotting of CSF of live TBI patients; assay type: binding; parameters: The recognition of cis P-tau in the CSF of live TBI patients; from tissue; host or cells: cerebrospinal fluid of live traumatic brain injury patients; conditions: relative to control CSF samples
Text: CSF pT231-tau is an early biomarker of traumatic brain injury (TBI). The recognition of cis P-tau in the CSF of live TBI patients by the humanized cis pT231-tau monoclonal antibody variants evaluated immunoblotting analyses using different humanized antibody variants.

[4] = biological target: cis pT231-tau (P-tau peptide, pure cis or cis-locked); test: Biacore assay of binding affinity of humanized cis mAb variants
Text: We next started to characterize and select lead humanized mAbs. We expressed and purified humanized mAb variants using a CHO expression system. We transfected over 45 plasmid DNA pairs of heavy and light chain cDNAs into CHO cells to express over 225 humanized cis mAb variants in various combinations. To evaluate the target binding specificity and affinity of our mouse mAbs, we established a simple and quantitative ELISA to screen the clones using a wild-type P-tau peptide and its pure cis or cis-locked, and pure trans counterparts and determined the binding affinity for selected clones using Biacore assays. We screened over 200 humanized cis mAb variants. […] Furthermore, one-tenth of humanized cis mAb variants were also able to recognize cis P-tau in human AD and TBI brains based on immunostaining analysis.
as §1

[5] = test system: BCAS (bilateral common carotid artery stenosis) mice; test: 3 month treatment of BCAS mice with humanized cis mAbs (Y maze, NOR, Barnes maze); assay type: in vivo
Protocol: BCAS mice were treated with novel humanized cis mAbs (HT10 and HT18), murine cis mAb C113 (as described in, e.g., U.S. Pat. No. 9,688,747, positive control), mouse-human chimeric HT13 (positive control), or IgG (negative control). Behavioral changes were assay by Y-maze and novel object recognition (NOR) at 1 month after BCAS (FIG. 92A); by Y-maze and NOR at 3 months after BCAS (FIG. 92B); and by Barnes maze at 3 months after BCAS (FIG. 92C). *, p<0.05; **, p<0.01; ***, p<0.001; ****, p<0.0001.
As described above in Examples 1-4, we developed 225 humanized cis P-tau mAb variants and identified 10 top fully humanized cis mAb variants (HT1-4, HT6-10 and HT18) with the expected specificity and potency. […] In this experiment, we performed a 3 month treatment of BCAS (bilateral common carotid artery stenosis) mice with two humanized cis mAb variants, HT10 and HT18, along with murine cis mAb C113 (as described in, e.g., U.S. Pat. No. 9,688,747) and mouse-human chimeric HT13 as positive controls.

[6] = test system: mice (C57/BL6) after 7-hit repetitive TBI; test: 7-hit repetitive mild TBI in mice, elevated plus maze; assay type: in vivo; conditions: risk-taking behavior, HT13 chimera control = 1.0
Protocol: as §1, §2

[7] = 3 months after BCAS surgery, Barnes maze

T1 sequence (P10636 1-441 isoform P10636-8): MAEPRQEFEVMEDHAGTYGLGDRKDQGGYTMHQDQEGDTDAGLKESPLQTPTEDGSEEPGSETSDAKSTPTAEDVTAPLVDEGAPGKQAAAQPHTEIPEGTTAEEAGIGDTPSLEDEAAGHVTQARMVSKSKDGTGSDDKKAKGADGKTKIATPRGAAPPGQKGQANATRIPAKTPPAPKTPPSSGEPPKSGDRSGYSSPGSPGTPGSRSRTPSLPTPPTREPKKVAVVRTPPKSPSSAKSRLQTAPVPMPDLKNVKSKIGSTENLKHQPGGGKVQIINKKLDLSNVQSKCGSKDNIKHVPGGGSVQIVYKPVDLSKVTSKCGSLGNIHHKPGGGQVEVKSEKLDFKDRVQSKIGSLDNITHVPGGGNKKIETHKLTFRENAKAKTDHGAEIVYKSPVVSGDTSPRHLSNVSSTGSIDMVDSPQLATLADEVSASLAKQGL

| elimination of cis P-tau in neurons under hypoxic conditions (images) [2] | rank in cis P-tau elimination assay (FIG. 4) [2] | Kd [4] [nM] | Molecule | Functional restoration 3-hit TBI [1] | detection of cis P-tau in CSF of live TBI patients [3] | VCID-like behavioral changes ([5]; 1 month after BCAS surgery) | VCID-like behavioral changes [5, 7] | Functional restoration 7-hit TBI [6] |
| --- | --- | --- | --- | --- | --- | --- | --- | --- |
| elimination of cis P-tau | top four performing variants | 1.77 | HT10: humanized cis-pThr231-tau mAb; heavy chain variable domain SEQ ID NO: 26, light chain variable domain SEQ ID NO: 19 (antibody, V domains shown) VH: QVQLVQSGAEVKKPGASVKMSCKASGYTFTSYWIHWVKQRPGQGLEWIGVIDPSDSYTRYNQKFKGRATLTVDTSASTAYMELSSLRSEDTAVYYCTTWEVDYWGQGTLVTVSS VL: DVVMTQSPLSLPVTLGQPASISCRSSQSLVHSDGNTYLHWYLQKPGQSPQLLIYKVSNRFSGVPDRFSGSGSGTDFTLKISRVEAEDVGVYYCSQSTHVPWTFGGGTKVEIK | 1.2 | robust detection of cis P-tau as early as three days after TBI | effective in preventing VCID-like behavioral changes | effective in preventing VCID-like behavioral changes | 1.3 |
| elimination of cis P-tau | top four performing variants | 1.91 | HT18: humanized cis-pThr231-tau mAb; heavy chain variable domain SEQ ID NO: 29, light chain variable domain SEQ ID NO: 20 (antibody, V domains shown) VH: QVQLVQSGAEVKKPGSSVKVSCKASGYTFTSYWIHWVRQAPGQGLEWMGVIDPSDSYTRYNQKFKGRVTITRDTSMSTAYTELSSLRSEDTAVYYCTTWEVDYWGQGTLVTVSS VL: DIQMTQSPSTLSASVGDRVTITCRSSQSLVHSDGNTYLHWYQQKPGKAPKLLIYKVSNRFSGVPSRFSGSGSGTEFTLTISSLQPDDFATYYCSQSTHVPWTFGQGTKLEIK | 1.0 | robust detection of cis P-tau as early as three days after TBI | effective in preventing VCID-like behavioral changes | effective in preventing VCID-like behavioral changes | 1.1 |
